Test results from US12655441B2, “PPO polypeptides tolerant to PPO-inhibiting herbicides and use thereof” (QINGDAO KINGAGROOT CHEMICAL COMPOUND CO., LTD., priority 2021, dated 2026).

What was measured:
[1] = tested on: Arabidopsis thaliana; experiment: Herbicide resistance test of Arabidopsis thaliana seeds overexpressing crop PPO1 WT or mutant on MS medium; type: in vivo; conditions: overexpressed in Arabidopsis thaliana seed; for tolerance to compound A compared with wild-type Arabidopsis thaliana / tolerance to compound A compared with the overexpressed wild-type PPO1: different concentrations of compound A; for tolerance to flumioxazin compared with wild-type Arabidopsis thaliana / tolerance to flumioxazin compared with the overexpressed wild-type PPO1: different concentrations of flumioxazin; for tolerance to saflufenacil compared with wild-type Arabidopsis thaliana / tolerance to saflufenacil compared with the overexpressed wild-type PPO1: different concentrations of saflufenacil
Description: 1) Sowing: plump and vernalized wild-type Arabidopsis thaliana seeds were selected, treated with 75% alcohol for 1 minute, disinfected with 10% NaClO for 6 minutes, and washed with sterile water for 5 to 6 times. After the sterilization was completed, the seeds were placed on a MS medium plate for one week, then transplanted to sterilized nutrient soil (nutrient soil:vermiculite=1:1) and cultured in a greenhouse at (25±2) ° C. with a photoperiod of 16 h/8 h (light/dark).
4) Infestation of Arabidopsis thaliana inflorescences: the uninfected Arabidopsis thaliana with good growth state and lush inflorescences were selected for infection and their fruit pods were cut off from the plants by scissors prior to transformation. The Arabidopsis thaliana inflorescences were dipped in the prepared infection solution for 0.5 to 1 minute. Then the infected Arabidopsis thaliana seedlings were placed in dark and humid conditions for 24 hours. After one week, the infection was repeated.
After the transformation of dipped Arabidopsis thaliana inflorescences, Arabidopsis thaliana TO-generation seeds were collected and sowed on a resistant MS plate containing 30 mg/L hygromycin to screen positive plants.
The obtained overexpressed mutant and wild-type Arabidopsis thaliana seeds of different crops were tested for resistance on a MS medium (petri dish) containing different concentrations of PPO-inhibiting herbicidal compounds, as shown in FIG. 12-23.

[2] = tested on: PPO-deficient Escherichia coli (ΔhemG); experiment: PPO-deficient E. coli (ΔhemG) transformed by corn ZmPPO1 mutant genes, growth on LB medium containing compound A; type: cell-based; conditions: compound A 5 μM
Description: To verify whether the mutation of the PPO1-conserved protein motif LLLNYI in other plants could also confer resistance to herbicides, the mutation combination of leucine residues at the third position and tyrosine residues at the fifth position in the protein motif LLLNYI was carried out by using the same method as described in the above examples and screened by using of the LB medium containing herbicidal compound A, and the growth inhibition was observed.

Row | Molecule | tolerance to compound A compared with wild-type Arabidopsis thaliana [1] | tolerance to flumioxazin compared with wild-type Arabidopsis thaliana [1] | tolerance to saflufenacil compared with wild-type Arabidopsis thaliana [1] | tolerance to compound A compared with the overexpressed wild-type PPO1 [1] | tolerance to flumioxazin compared with the overexpressed wild-type PPO1 [1] | tolerance to saflufenacil compared with the overexpressed wild-type PPO1 [1] | growth of ΔhemG transformant on plates containing compound A, compared with ZmPPO1-WT [2]
1 | BnPPO1-C5 WT: Amino-acid sequence of PPO1 wild-type from oilseed rape (protein, Amino-acid sequence of PPO1 wild-type from oilseed rape (BnPPO1-C5)) MDLSLLRPQPFLSPFSNPFPRSRPYKPPNLRCSVSGGSVVGGSSTIEGGRGGKTVAADCVIVGGGISGLCIAQALVTKHPDAAKSVMVTEAKDRVGGNIITREEQGFLWEEGPNSFQPSDPMLTMVVDSGLKDDLVLGDPTAPRFVLWNGKLRPVPSKLTDLPFFDLMSIGGKIRAGFGAIGIRPSPPGREESVEEFVRRNLGDEVFERLIEPFCSGVYAGDPAKLSMKAAFGKVWKLEENGGSIIGGAFKAIQARNKAPKTTRDPRLPKPKGQTVGSFRKGLTMLPDAISARLGDKVKVSWKLSSISKLPSGGYSLTYETPEGIVTVQSKSVVMTVPSHVASSLLRPLSDSAAEALSKLYYPPVAAVSISYPKEAIRSECLIDGELKGFGQLHPRTQKVETLGTIYSSSLFPNRAPPGRVLLLNYIGGATNTGILSKSEGELVEAVDRDLRKMLIKPSSTDPLVLGVKVWPQAIPQFLIGHIDLVDAAKASLSSSGHEGLFLGGNYVAGVALGRCVEGAYETATQVNDFMSRYAYK | certain level of tolerance | certain level of tolerance | certain level of tolerance | – | – | – | –
2 | BnPPO1-C5 L424S/Y426I: Amino-acid sequence of PPO1 from oilseed rape mutant (protein, Amino-acid sequence of PPO1 from oilseed rape mutant (BnPPO1-C5 L424S/Y426I)) MDLSLLRPQPFLSPFSNPFPRSRPYKPPNLRCSVSGGSVVGGSSTIEGGRGGKTVAADCVIVGGGISGLCIAQALVTKHPDAAKSVMVTEAKDRVGGNIITREEQGFLWEEGPNSFQPSDPMLTMVVDSGLKDDLVLGDPTAPRFVLWNGKLRPVPSKLTDLPFFDLMSIGGKIRAGFGAIGIRPSPPGREESVEEFVRRNLGDEVFERLIEPFCSGVYAGDPAKLSMKAAFGKVWKLEENGGSIIGGAFKAIQARNKAPKTTRDPRLPKPKGQTVGSFRKGLTMLPDAISARLGDKVKVSWKLSSISKLPSGGYSLTYETPEGIVTVQSKSVVMTVPSHVASSLLRPLSDSAAEALSKLYYPPVAAVSISYPKEAIRSECLIDGELKGFGQLHPRTQKVETLGTIYSSSLFPNRAPPGRVLLSNIIGGATNTGILSKSEGELVEAVDRDLRKMLIKPSSTDPLVLGVKVWPQAIPQFLIGHIDLVDAAKASLSSSGHEGLFLGGNYVAGVALGRCVEGAYETATQVNDFMSRYAYK | certain level of tolerance | certain level of tolerance | certain level of tolerance | much higher | much higher | much higher | –
3 | L424T/Y426V (protein, Amino-acid sequence of PPO1 from corn mutant (ZmPPO1 L424T/Y426V)) MVAATATATAMATAASPLLNGTRIPARLRHRGLSVRCAAVAGGAAEAPASTGARLSADCVVVGGGISGLCTAQALATRHGVGDVLVTEARARPGGNITTVERPEEGYLWEEGPNSFQPSDPVLTMAVDSGLKDDLVFGDPNAPRFVLWEGKLRPVPSKPADLPFFDLMSIPGKLRAGLGALGIRPPPPGREESVEEFVRRNLGAEVFERLIEPFCSGVYAGDPSKLSMKAAFGKVWRLEETGGSIIGGTIKTIQERSKNPKPPRDARLPKPKGQTVASFRKGLAMLPNAITSSLGSKVKLLWKLTSITKSDDKGYVLEYETPEGVVSVQAKSVIMTIPSYVASNILRPLSSDAADALSRFYYPPVAAVTVSYPKEAIRKECLIDGELQGFGQLHPRSQGVETLGTIYSSSLFPNRAPDGRVLLTNVIGGATNTGIVSKTESELVEAVDRDLRKMLINSTAVDPLVLGVRVWPQAIPQFLVGHLDLLEAAKAALDRGGYDGLFLGGNYVAGVALGRCVEGAYESASQISDFLTKYAYK | – | – | – | – | – | – | grew normally without an inhibition
4 | ZmPPO1 WT: Amino-acid sequence of PPO1 from wild-type corn (protein, Amino-acid sequence of PPO1 from wild-type corn (ZmPPO1 WT)) MVAATATATAMATAASPLLNGTRIPARLRHRGLSVRCAAVAGGAAEAPASTGARLSADCVVVGGGISGLCTAQALATRHGVGDVLVTEARARPGGNITTVERPEEGYLWEEGPNSFQPSDPVLTMAVDSGLKDDLVFGDPNAPRFVLWEGKLRPVPSKPADLPFFDLMSIPGKLRAGLGALGIRPPPPGREESVEEFVRRNLGAEVFERLIEPFCSGVYAGDPSKLSMKAAFGKVWRLEETGGSIIGGTIKTIQERSKNPKPPRDARLPKPKGQTVASFRKGLAMLPNAITSSLGSKVKLLWKLTSITKSDDKGYVLEYETPEGVVSVQAKSVIMTIPSYVASNILRPLSSDAADALSRFYYPPVAAVTVSYPKEAIRKECLIDGELQGFGQLHPRSQGVETLGTIYSSSLFPNRAPDGRVLLLNYIGGATNTGIVSKTESELVEAVDRDLRKMLINSTAVDPLVLGVRVWPQAIPQFLVGHLDLLEAAKAALDRGGYDGLFLGGNYVAGVALGRCVEGAYESASQISDFLTKYAYK | certain level of tolerance | certain level of tolerance | certain level of tolerance | – | – | – | –
5 | GmPPO1 WT: Amino-acid sequence of PPO1 from wild-type soybean (protein, Amino-acid sequence of PPO1 from wild-type soybean (GmPPO1)) MVSVFNEILFPPNQTLLRPSLHSPTSFFTSPTRKFPRSRPNPILRCSIAEESTASPPKTRDSAPVDCVVVGGGVSGLCIAQALATKHANANVVVTEARDRVGGNITTMERDGYLWEEGPNSFQPSDPMLTMVVDSGLKDELVLGDPDAPRFVLWNRKLRPVPGKLTDLPFFDLMSIGGKIRAGFGALGIRPPPPGHEESVEEFVRRNLGDEVFERLIEPFCSGVYAGDPSKLSMKAAFGKVWKLEKNGGSIIGGTFKAIQERNGASKPPRDPRLPKPKGQTVGSFRKGLTMLPDAISARLGNKVKLSWKLSSISKLDSGEYSLTYETPEGVVSLQCKTVVLTIPSYVASTLLRPLSAAAADALSKFYYPPVAAVSISYPKEAIRSECLIDGELKGFGQLHPRSQGVETLGTIYSSSLFPNRAPPGRVLLLNYIGGATNTGILSKTDSELVETVDRDLRKILINPNAQDPFVVGVRLWPQAIPQFLVGHLDLLDVAKASIRNTGFEGLFLGGNYVSGVALGRCVEGAYEVAAEVNDFLTNRVYK | certain level of tolerance | certain level of tolerance | certain level of tolerance | – | – | – | –
6 | GmPPO1 L430S/Y432I: Amino-acid sequence of PPO1 from soybean mutant (protein, Amino-acid sequence of PPO1 from soybean mutant (GmPPO1 L430S/Y432I)) MVSVFNEILFPPNQTLLRPSLHSPTSFFTSPTRKFPRSRPNPILRCSIAEESTASPPKTRDSAPVDCVVVGGGVSGLCIAQALATKHANANVVVTEARDRVGGNITTMERDGYLWEEGPNSFQPSDPMLTMVVDSGLKDELVLGDPDAPRFVLWNRKLRPVPGKLTDLPFFDLMSIGGKIRAGFGALGIRPPPPGHEESVEEFVRRNLGDEVFERLIEPFCSGVYAGDPSKLSMKAAFGKVWKLEKNGGSIIGGTFKAIQERNGASKPPRDPRLPKPKGQTVGSFRKGLTMLPDAISARLGNKVKLSWKLSSISKLDSGEYSLTYETPEGVVSLQCKTVVLTIPSYVASTLLRPLSAAAADALSKFYYPPVAAVSISYPKEAIRSECLIDGELKGFGQLHPRSQGVETLGTIYSSSLFPNRAPPGRVLLSNIIGGATNTGILSKTDSELVETVDRDLRKILINPNAQDPFVVGVRLWPQAIPQFLVGHLDLLDVAKASIRNTGFEGLFLGGNYVSGVALGRCVEGAYEVAAEVNDFLTNRVYK | certain level of tolerance | certain level of tolerance | certain level of tolerance | much higher | much higher | much higher | –
